Data from patent publication US20240317852A1 (Molecular Partners, published 2024).
Each block holds one binder with its values, some of them ahead of it.

Assays:
[1] = biological target: T1, biotinylated human CD33 full-length extracellular domain (residues 18-259) with C-terminal Fc tag and Avi tag (human, UniProt P20138 18-259, biotinylated with BirA-GST (Avi tag)); assay: SPR (ProteOn XPR36), biotinylated full-length CD33 ECD on NLC chip, DARPin at 50 nM, single trace
T1 construct: Bought from Evitria; also called bio.hCD33; bio.hCD33 full-length target; not shown: C-terminal Fc tag and Avi tag
T1 sequence (P20138 18-259 R69G limits assumed): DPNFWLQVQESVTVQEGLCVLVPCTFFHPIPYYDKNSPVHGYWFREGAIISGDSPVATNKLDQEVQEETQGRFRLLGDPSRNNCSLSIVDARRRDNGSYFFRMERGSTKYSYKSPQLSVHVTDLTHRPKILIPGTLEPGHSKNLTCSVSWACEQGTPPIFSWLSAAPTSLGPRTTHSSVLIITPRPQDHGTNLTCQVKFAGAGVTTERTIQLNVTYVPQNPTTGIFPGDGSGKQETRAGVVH
Protocol: Briefly, SPR measurements were performed using a ProteOn XPR36 instrument (BioRad). The running buffer was PBS pH 7.4 containing 0.005% Tween 20® (PBST). The bio.hCD33 full-length target (SEQ ID NO: 60) was immobilized on NLC chips (BioRad) to a level of 540 RU and the spliced variant (SEQ ID NO: 61) to a level of 560RU. The interaction of the 96 well purified CD33-specific binding proteins in TCE format to the full-length and the spliced variant of CD33 ECD were measured by injecting the binding protein at 50 nM with an association of 120s and dissociation of 1200s using a constant flow of […]. The target was regenerated between the individual measurements using 2M MgCl₂. The signals were double referenced against the running buffer (PBST) treated control lane.
Dissociation constants (KD) were calculated from the estimated on- and off-rates using standard procedures known to the person skilled in the art. […] The values in Table 2a are averages of multiple replicates.

[2] = biological target: T1, biotinylated human CD33 full-length …; assay: HTRF
[3] = biological target: T2, human CD33 expressed on Molm-13 tumor cells (human, UniProt P20138 18-364); assay: flow cytometry on MOLM13 cells
T2 construct: whole, on cells; also called CD33 expressed on the surface of cells; CD33-expressing tumor cells (Molm-13 N1)
T2 sequence (P20138 18-364): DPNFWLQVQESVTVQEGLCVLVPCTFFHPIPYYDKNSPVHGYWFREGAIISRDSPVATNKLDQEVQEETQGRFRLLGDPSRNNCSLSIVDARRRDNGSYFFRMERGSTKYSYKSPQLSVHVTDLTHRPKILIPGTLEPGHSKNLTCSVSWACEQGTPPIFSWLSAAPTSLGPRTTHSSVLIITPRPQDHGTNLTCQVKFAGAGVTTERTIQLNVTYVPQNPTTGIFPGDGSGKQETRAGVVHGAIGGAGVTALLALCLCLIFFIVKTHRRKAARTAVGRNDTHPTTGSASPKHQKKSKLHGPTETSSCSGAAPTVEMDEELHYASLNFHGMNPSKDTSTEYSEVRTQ

[4] = biological target: T2, human CD33 expressed on Molm-13 tumor …; assay: flow cytometry on CD33-expressing Molm-13 N1 cells, anti-DARPin antibody detection
Protocol: Binding of binding proteins of the invention to CD33 expressed on the surface of cells was analyzed by fluorescence activated cell sorting (FACS) flow cytometry. For this purpose. CD33-expressing tumor cells (Molm-13 N1) were seeded at 100,000 cells per well in a 96 well plate. DARPin® protein #2, DARPin protein #29, and DARPin® protein #30, in monospecific format, were titrated down In 1:5 dilution ratio starting at 2000 nM. Tumor cells were resuspended with diluted DARPin proteins and incubated for 60 minutes at 4° C. The assay was performed in PBS Including 2% fetal bovine serum without human serum albumin (HSA). After washing twice with Phosphate Buffer saline (PBS), DARPin® protein specific tumor call binding was detected by adding unlabeled primary […] (anti-rabbit 1-1-1 antibody, CePower) at 2 μg/ml. An incubation step of at least 30 minutes at 4° C. followed. Afterwards, cells were washed with PBS and a secondary goat anti-rabbit antibody labelled with Alexa Fluor 488 antibody (ThermoFisher) at 2 ug/ml was added. The same incubation conditions applied. Finally, the cells were washed twice and resuspended in Cytofix fixation buffer (BD Biosciences) for 15 min at room temperature (RT).

[5] = biological target: T1, biotinylated human CD33 full-length …; assay: SPR (ProteOn), bio.hCD33 full length on NLC chip, DARPin at 100 nM, 1:1 Langmuir fit
Protocol: Moreover, the binding affinities of two additional purified ankyrin repeat proteins on recombinant human CD33 target were measured and analyzed with a similar procedure as described above for DARPin proteins #1, #3, #6, #7-#9 and #14-#16. Briefly, bio.hCD33 was coaled on NLC chip (BioRad) to a level of 1180 RU. DARPin® protein #29 and DARPin® protein #30 were applied as analyte at a single concentration of 100 nM with a 120 s association and 1200 s dissociation phase at a constant flow of 100 ul/min. The target was regenerated with 4M MgCl2. The signals were double referenced against the running buffer (PBST-PBS pH 7.4 containing 0.005% Tween 200) treated control lane of L1 and A6. The 1:1 Langmuir model was used for the fitting.

B1: DARPin® protein #3 in TCE format (formatted with a CD3-specific ankyrin repeat domain) (designed binder)
chain: MRGSHHHHHHGSDLGVKLLRAAFHGQDDEVRILLAAGADVNAKDTDGETPLHYAAQFGHLEIVEVLLKAGADVNAKDAYGATPLHWAAWHGHLEIVEVLLKAGADVNAQDVSGATPADLAAKVGHEDIAEVLQKAA
notes: Crude extract HTRF construct also carried a C-terminal Flag tag; not shown: which one,
Kd [1]: 7.4 nM

binding result [2]: binds | binding result [3]: binds
B2: DARPin® protein #10 (engineered variant of DARPin® protein #9) (designed binder)
chain: DLGYKLLWAASAGQDDEVRELLKAGADVNAKDKDGATPLHFAAAKGHLEIVEVLLKAGADVNAKDNRGATPLHYAAASGHLEIVEVLLKAGADVNAQDEWGNTPADLAAIYGHGDIAEVLQKAA

binding result [2]: binds | binding result [3]: binds
B3: DARPin® protein #13 (engineered variant of DARPin® protein #9) (designed binder)
chain: DLGYKLLWAASAGQDDEVRELLKAGADVNAKDKDGATPLHFAAAKGHLEIVEVLLKAGADVNAKDNRGATPLHYAAASGHLEIVEVLLKAGADVNAQDEWGNTPADLAAIYGHEDIAEVLQKAA

B4: DARPin® protein #7 in TCE format (formatted with a CD3-specific ankyrin repeat domain) (designed binder)
chain: MRGSHHHHHHGSDLGLKLLRAAYDGQDDEVRILLAAGADVNAKDWQGFTPLHYAAVLGHLEIVEVLLKAGADVNAKDQEGATPLHLAALHGHLEIVEVLLKAGADVNAQDESGWTPADLAAKWGHEDIAEVLQKAA
notes: as for B1
Kd [1]: 0.47 nM

EC50 [4]: 0.32 nM | Kd [5]: 0.62 nM
B5: DARPin® protein #29 in monospecific (single domain) format (designed binder)
chain: MRGSHHHHHHGSDLGVKLLLAAERGQLDEVRILLKAGADVNAKDIAEGYTPLHIAAYQGHLEIVEVLLKAGADVNAKDRYGKTPLHLAAIGGHLEIVEVLLKAGADVNAQDNKGSTPADLAADYGHQDIAEVLQKAA
notes: the same molecule is used here

EC50 [4]: 1.2 nM
B6: DARPin® protein #2 in monospecific (single domain) format (designed binder)
chain: MRGSHHHHHHGSDLGVKLLLAASRGQLDEVRILLKAGADVNAKDIDEGYTPLHIAAYYGHLEIVEVLLKAGADVNAKDRYGKTPLHLAAISGHLEIVEVLLKAGADVNAQDDKGDTPADLAADYGHQDIAEVLQKAA

EC50 [4]: 1.9 nM | Kd [5]: 0.88 nM
B7: DARPin® protein #30 in monospecific (single domain) format (designed binder)
chain: MRGSHHHHHHGSDLGKKLLLAAERGQLDEVRILLKAGADVNAKDRAEGYTPLHIAAYQGHLEIVEVLLKAGADVNAKDRYGKTPLHLAAISGHLEIVEVLLKAGADVNAQDNKGSTPADLAADYGHQDIAEVLQKAA
notes: as for B5

B8: DARPin® protein #9 in TCE format (formatted with a CD3-specific ankyrin repeat domain) (designed binder)
chain: MRGSHHHHHHGSDLGYKLLWAASAGQDDEVRILLAAGADVNAKDKDGATPLHFAAAKGHLEIVEVLLKAGADVNAKDNRGATPLHYVAAASGHLEIVEVLLKAGADVNAQDEWGNTPADLAAIYGHGDIAEVLQKAA
notes: as for B1
Kd [1]: 0.76 nM

B9: DARPin® protein #14 in TCE format (formatted with a CD3-specific ankyrin repeat domain) (designed binder)
chain: MRGSHHHHHHGSDLGWKLLNAAIAGQDDEVRILLAAGADVNAKDTEYGWTPLHIAASDGHLEIVEVLLKAGADVNAKDYAGSTPLHAAAFVGHLEIVEVLLKAGADVNAQDHQGQTPADLAAQQGHVDIAEVLQKAA
notes: as for B1
Kd [1]: 0.64 nM

binding result [2]: binds | binding result [3]: binds
B10: DARPin® protein #11 (engineered variant of DARPin® protein #9) (designed binder)
chain: DLGYKLLWAASAGQDDEVRELLKAGADVNAKDKDGATPLHFAAAKGHLEIVEVLLKAGADVNAKDNRGATPLHYVAAASGHLEIVEVLLKAGADVNAQDEWGNTPADLAAIYGHEDIAEVLQKAA

binding result [2]: binds | binding result [3]: binds
B11: DARPin® protein #12 (engineered variant of DARPin® protein #9) (designed binder)
chain: DLGVKLLWAASAGQDDEVRELLKAGADVNAKDKDGATPLHFAAAKGHLEIVEVLLKAGADVNAKDNRGATPLHYVAAASGHLEIVEVLLKAGADVNAQDEWGNTPADLAAIYGHGDIAEVLQKAA

B12: DARPin® protein #1 in TCE format (formatted with a CD3-specific ankyrin repeat domain) (designed binder)
chain: MRGSHHHHHHGSDLGWKLLLAASRGQDDEVRILLAAGADVNAKDIDEGYTPLHIAAYYGHLEIVEVLLKAGADVNAKDRYGKTPLHLAAISGHEDIAEVLLKAGADVNAQDDKGDTPADLAADYGHEDIAEVLQKAA
notes: not shown: which one,
Kd [1]: 4.8 nM

B13: DARPin® protein #8 in TCE format (formatted with a CD3-specific ankyrin repeat domain) (designed binder)
chain: MRGSHHHHHHGSDLGWKLLSAATLGQDDEVRILLAAGADVNAKDEWGKTPLHWAASTGHLEIVEVLLKAGADVNAKDLWGHTPLHEAAAKGHLEIVEVLLKAGADGNAQDNIGDTPADLAAYQGHEDIAEVLQKAA
notes: as for B1
Kd [1]: 2.3 nM

B14: DARPin® protein #15 in TCE format (formatted with a CD3-specific ankyrin repeat domain) (designed binder)
chain: MRGSHHHHHHGSDLGKKLLQAARAGQLDEVRELLKAGADVNAKDLIGWTPLHLAAHYGHLEIVEVLLKAGADVNAKDAQGWTPLHIAAWEGHLEIVEVLLKAGADVNAKDWTGETPLHLAAFEGHLEIVEVLLKAGADVNAQDKSGKTPADLAARAGHQDIAEVLQKAA
notes: as for B1
Kd [1]: 17 nM

B15: DARPin® protein #5 in TCE format (formatted with a CD3-specific ankyrin repeat domain) (designed binder)
chain: MRGSHHHHHHGSDLSKKLLQAARAGQLDEVRELLKAGADVNAKDQIGQTPLHLAAQSGHLEIVEVLLKAGADVNAKDTEGWTPLHVAAWEGHLEIVEVLLKAGADVNAKDWTGETPLHLAAYQGHLEIVEVLLKAGADVNAQDKSGKTPADLAARAGHQDIAEVLQKAA
notes: as for B1
Kd [1]: 12 nM
